Measured values from patent publication US20060018915A1 (EPIMUNNE, published 2006).

How the values were obtained:
Assay in all cases: HLA binding, candidate-epitope table; assay not described
A*0101 = target: T1, A*0101 (human, UniProt P61769 21-119)
T1 construct: MHC class I molecule; form in the assay not described; also called HLA-A*0101

A*3101 = target: T2, A*3101 (human, UniProt P61769 21-119, limits assumed)
T2 construct: MHC class I molecule; form in the assay not described; also called HLA-A*3101

A*6801 = target: T3, A*6801 (human, UniProt P61769 21-119, limits assumed)
T3 construct: MHC class I molecule; form in the assay not described; also called HLA-A*6801

A*0301 = target: T4, A*0301 (human, UniProt P61769 21-119)
T4 construct: MHC class I molecule; form in the assay not described; also called HLA-A*0301

IC50 (A*0101)	IC50 (A*3101)	IC50 (A*6801)	IC50 (A*0301)	Binder
0.068 µM	–	–	–	GSDCTTIHYNY (also called 52.0136) [p53.226]
–	0.013 µM	0.004 µM	0.1 µM	VVFGILIKR (also called 1095.51) [Her2/neu.669]
